# Measured values from PMC5780510, “Insights into the molecular mechanism of dehalogenation catalyzed by D-2-haloacid dehalogenase from crystal structures” (Scientific Reports, 2018).
# Molecular target: the molecule itself
# Assay: crystal structure; hanging-drop vapour diffusion, 0.1 M MES pH 6.43, 4% PEG20000, 10% PEG8000, potassium sodium tartrate, 277 K; four monomers in each asymmetric unit
protein,measurement,value
"D-2-haloacid dehalogenase HadD AJ1 from Pseudomonas putida AJ1/23, wild type (enzyme, D-2-haloacid dehalogenase HadD AJ1, Pseudomonas putida strain AJ1/23; the 909 bp hadd aj1 gene (ENA AAA25831.1) subcloned into pET-28a between NcoI and XhoI; Homotetramer in the crystal; it gives no residue limits; also called WT; D-DEX) MNLPDNSIHLQLPRPVCEAIIRPVPEHRADQELSEIYRDLKATFGVPWVGVITQAVAYYRPFFAEAWRRFAPSAKTHFFERASDDIRIRSWELMGQSFVIEGQTDRLREMGYSVREIGQIRAVLDIFDYGNPKYLIFATAIKEGLLSGRTFGGAAGDARCHFPRSPICQIDPIPVMVEEHHAGGTLSQVYADIKQTLQLPFINSDYKAMARWPSYLEQAWGALKPCIDTPAYQAGRFDINARALAALDALPTAYRMSRDDALQAGLSEAQTDELIQVISLFQWMLSGLVLNVTHFKQQALK",stoichiometry N,4
